# Source: patent US20210269549A1, “ANTI-SAS1B ANTIBODIES, ASSOCIATED METHODS OF USE, AND COMPOSITIONS AND METHODS FOR DETECTING AND TREATING CANCER” (UNIVERSITY OF VIRGINIA PATENT FOUNDATION, priority 2015, published 2021)
# Legend:
# [1] = tested on: human uterine cancer cells (MMMT539); experiment: Antibody drug conjugate cytotoxicity (ADC) assay, MMMT539; type: cell-based; conditions: FIG. 3A-B
# Description: The cytotoxic effect of anti-human SAS1B mAbs SB2 and SB5 on human uterine cancer cells (MMMT539) was examined by antibody drug conjugate cytotoxicity (ADC) assay. Human uterine cancer cells MMMT539 were seeded in triplicate on 96 well plate overnight and then treated with SB2 or SB5 and anti-mouse Fab-cleavable-Duocarmycin complex for ˜90 h. The presence of viable live cells per well was measured by total cellular ATP content in relative luminescence unit (RLU). Viability of control live cells (100%) was determined from average of 9 wells in terms of total cellular ATP (in RLU) containing the constant 15 nM Fab-CL-DMDM for each set of antibody/reagent. […] Staurosporine, a general protein kinase inhibitor, was used to induce apoptosis in 1% DMSO as a positive control for the assay.
# [2] = biological target: T1, human SAS1B (Homo sapiens, UniProt Q6HA08); experiment: Western blot of human SAS1B probed with anti-human SAS1B murine mAbs; type: binding; conditions: for Specifically binds human SAS1B (and not mouse SAS1B): Table 1
# T1 construct: made in house; host or cells: E. coli
# T1 sequence (Q6HA08 24-431): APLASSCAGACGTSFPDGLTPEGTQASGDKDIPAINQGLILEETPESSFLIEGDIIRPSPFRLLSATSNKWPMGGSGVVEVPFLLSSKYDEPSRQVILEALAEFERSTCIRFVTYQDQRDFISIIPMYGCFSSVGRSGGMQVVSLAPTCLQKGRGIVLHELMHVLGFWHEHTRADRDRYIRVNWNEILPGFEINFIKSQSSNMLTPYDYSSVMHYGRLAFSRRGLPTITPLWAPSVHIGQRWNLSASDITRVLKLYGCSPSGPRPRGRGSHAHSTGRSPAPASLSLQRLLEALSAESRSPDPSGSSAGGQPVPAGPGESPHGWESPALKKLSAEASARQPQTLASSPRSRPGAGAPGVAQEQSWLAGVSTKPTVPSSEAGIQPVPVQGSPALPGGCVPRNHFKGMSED
# Source text: A western blot of human SAS1B and mouse SAS1B was probed with anti-human SAS1B murine monoclonal antibodies SB1, SB2, SB3, SB4, SB5, SB6, and SB7.
# [3] = biological target: T2, full-length SAS1B splice variant A polypeptide (Homo sapiens, UniProt Q6HA08); experiment: Western blot with mammalian cell-expressed recombinant SAS1B, full length; type: binding
# T2 construct: made in house
# T2 sequence (Q6HA08 24-431): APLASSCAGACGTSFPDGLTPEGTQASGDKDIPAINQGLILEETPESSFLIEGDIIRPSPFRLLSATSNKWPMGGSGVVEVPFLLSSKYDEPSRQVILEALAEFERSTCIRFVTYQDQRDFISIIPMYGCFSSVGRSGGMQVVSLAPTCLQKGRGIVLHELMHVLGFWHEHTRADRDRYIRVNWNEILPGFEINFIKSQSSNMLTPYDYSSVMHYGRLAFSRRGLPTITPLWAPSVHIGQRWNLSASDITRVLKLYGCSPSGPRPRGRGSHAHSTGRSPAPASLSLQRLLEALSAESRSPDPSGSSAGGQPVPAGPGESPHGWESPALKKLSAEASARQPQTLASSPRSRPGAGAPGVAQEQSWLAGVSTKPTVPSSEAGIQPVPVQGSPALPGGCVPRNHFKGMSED
# Description: (§1) SAS1B monoclonal antibodies were analyzed with mammalian cell-expressed recombinant SAS1B by western blotting.
# [4] = biological target: T3, SAS1B extracellular domain (aa 164-431) polypeptide (Homo sapiens, UniProt Q6HA08); experiment: Western blot with mammalian cell-expressed recombinant SAS1B, extracellular domain; type: binding
# T3 construct: SAS1B extracellular domain (aa 164-431) polypeptide; made in house
# T3 sequence (Q6HA08 164-431): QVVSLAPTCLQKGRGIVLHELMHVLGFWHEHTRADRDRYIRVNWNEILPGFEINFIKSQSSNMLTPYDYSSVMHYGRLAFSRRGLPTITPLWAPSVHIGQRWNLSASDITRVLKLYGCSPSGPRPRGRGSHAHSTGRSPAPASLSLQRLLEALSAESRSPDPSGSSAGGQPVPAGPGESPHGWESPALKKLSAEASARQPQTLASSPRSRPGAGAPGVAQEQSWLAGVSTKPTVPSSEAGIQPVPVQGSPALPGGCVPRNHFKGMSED
# Description: as §1
# [5] = biological target: T4, human SAS1B protein with a C-terminal V5 tag expressed by HEK293T cells (Homo sapiens, UniProt Q6HA08); experiment: Double immunofluorescence on fixed and permeabilized HEK293T cells transfected with SAS1B SV-A with V5 tag; type: cell-based; conditions: for IF signal / colocalization with V5-tag epitope signal: SV-A transfected HEK293T, PFA fixed, methanol permeabilized, mAbs at 10 ug/ml
# T4 construct: expressed in transfected cells; host or cells: HEK293T
# T4 sequence (Q6HA08 24-431): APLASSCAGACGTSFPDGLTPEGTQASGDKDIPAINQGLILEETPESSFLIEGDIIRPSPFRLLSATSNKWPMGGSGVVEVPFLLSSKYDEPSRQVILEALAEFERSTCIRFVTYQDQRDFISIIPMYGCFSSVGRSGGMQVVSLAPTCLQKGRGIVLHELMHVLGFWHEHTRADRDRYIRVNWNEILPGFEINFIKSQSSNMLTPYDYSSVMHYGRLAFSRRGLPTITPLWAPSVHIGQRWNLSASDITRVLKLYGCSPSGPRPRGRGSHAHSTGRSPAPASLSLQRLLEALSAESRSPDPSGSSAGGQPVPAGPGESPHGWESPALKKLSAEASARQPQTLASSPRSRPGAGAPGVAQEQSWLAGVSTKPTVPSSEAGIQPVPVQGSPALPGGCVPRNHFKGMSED
# Description: Experiments were conducted to determine the specificity of anti-human SAS1B monoclonal antibodies SB1, SB2, SB3, SB4, SB5, SB6 and SB7 against the human SAS1B protein with a C-terminal V5 tag expressed by HEK293T cells by double immuno-fluorescence from two different SAS1B epitopes. HEK293T cells were seeded at ˜100,000 per well of a 24 well plate containing a lysine-coated 12 mm coverslip. 24 hours later, the cells were transfected with 1 ug of SV-A plasmid with 2 ul of TURBOFECT® transfection reagent followed by no change of media. 48 h later the cells were PFA (paraformaldehyde) fixed and methanol permeabilized for an IF study as follows.
# The cells were removed from cell culture media and fixed in 4% PFA in PBS, 300 ul for 15 min. The cells were washed in 1 ml PBS in wells for 3 times and permeabilized in methanol (100%) for 15 min in 0.5 ml at RT. The cells were washed in PBS 1 ml for 3 times and blocked in complete culture media (DMEM) with 5% normal goat serum (NGS) for 30 min (i.e. BB, blocking buffer). The first antibody in BB was added for 1 h at 10 ug/ml for mouse monoclonal antibodies (SB1, SB2, SB3, SB4, SB5, SB6, SB7) and 5 ug/ml for anti-V5 DYLIGHT® 488 (green) rabbit (a rabbit polyclonal antibody to V5 tag). The cells were washed in PBS 3 times. The second antibody in BB (Goat anti-mouse Alexa Flour 594, red) was added for 1 h at 5 ug/ml (1:200 dilution). The cells were washed in PBS 3 times. The cells were mounted in slow fade DAPI 3 ul and stored at 4° C. before confocal imaging.
molecule,measurement,setting,value
"CN[C@@H]1C[C@H]2O[C@@](C)([C@@H]1OC)n1c3ccccc3c3c4c(c5c6ccccc6n2c5c31)C(=O)NC4 [Staurosporine, reference compound]",Cell killing,[1],killed the cancer cells in a dose dependent manner
"SB6: mouse anti-human SAS1B monoclonal antibody, IgG2b; VH SEQ ID NO:16, VL SEQ ID NO:18 (antibody, listed as Mus musculus, V domains shown) VH: EVQLQQSGPELVKPGSSVKISCKPSGYTFTDYNMVWMKQSHGKSLEWIGAINPNNGGTTYNQKFKGKATLTVDKSSSTAYMELRSLTSEDSAVYYCAPNWDWFAYWGQGTLVTVSA VL: DVLMTQIPLSLPVSLGDQASISCRSSQSILHSNGNTYLEWYLQKPGQSPKLLIYKVSNRFSGVPDRFSGSGSGTDFTLKISRVEAEDLGVYYCFQGSHVPFTFGSGTKLEIK",Reactivity on western blot of human SAS1B and mouse SAS1B,[2],specific to the human SAS1B only
same,Specificity in western blot for human SAS1B antigen in an E. coli protein background,[2],demonstrated specificity
same,Specifically binds human SAS1B (and not mouse SAS1B),[2],Yes
same,Reaction with full-length SAS1B splice variant A polypeptide,[3],reacted with the full-length SAS1B splice variant A polypeptide
same,Reaction with SAS1B extracellular domain (aa 164-431) polypeptide,[4],none of the them reacted
same,IF signal / colocalization with V5-tag epitope signal,[5],colocalize (merge) with V5-tag epitope signal
same,Signal on mock transfected HEK293T cells,[5],no V5 signal or SAS1B signal
"SB7: mouse anti-human SAS1B monoclonal antibody, IgG2b; VH SEQ ID NO:16, VL SEQ ID NO:18 (antibody, listed as Mus musculus, V domains shown) VH: EVQLQQSGPELVKPGSSVKISCKPSGYTFTDYNMVWMKQSHGKSLEWIGAINPNNGGTTYNQKFKGKATLTVDKSSSTAYMELRSLTSEDSAVYYCAPNWDWFAYWGQGTLVTVSA VL: DVLMTQIPLSLPVSLGDQASISCRSSQSILHSNGNTYLEWYLQKPGQSPKLLIYKVSNRFSGVPDRFSGSGSGTDFTLKISRVEAEDLGVYYCFQGSHVPFTFGSGTKLEIK",Reactivity on western blot of human SAS1B and mouse SAS1B,[2],specific to the human SAS1B only
same,Specificity in western blot for human SAS1B antigen in an E. coli protein background,[2],demonstrated specificity
same,Specifically binds human SAS1B (and not mouse SAS1B),[2],Yes
same,Reaction with full-length SAS1B splice variant A polypeptide,[3],reacted with the full-length SAS1B splice variant A polypeptide
same,Reaction with SAS1B extracellular domain (aa 164-431) polypeptide,[4],none of the them reacted
same,IF signal / colocalization with V5-tag epitope signal,[5],colocalize (merge) with V5-tag epitope signal
same,Signal on mock transfected HEK293T cells,[5],no V5 signal or SAS1B signal
